{"source": "patent US6818657B1", "about": "“Bioprecursors of a retinoic derivative and pharmaceutical and/or cosmetic compositions” (Pierre Fabre Dermo-Cosmetique, priority 1999, dated 2004)", "substrate": "CC1=C(/C=C/C(C)=C/C=C/C(C)=C/C(=O)Oc2ccc(O[C@@H]3OC(CO)[C@@H](O)C(O)C3O)cc2)C(C)(C)CCC1", "test": "Michaelis constants (Km) and Vm of recombinant β-glucocerebrosidase for pseudosubstrates", "assay_type": "biochemical", "details": "other: phthalate buffer pH 5.6 (0.025 M), taurocholate 5 mM, purified β-glucocerebrosidase, 30 minutes incubation, HPLC assay", "description": "After confirming that β-glucocerebrosidase is expressed in the keratinocytes, we produced a recombinant enzyme in the baculovirus system. A histidine tail was added to the COOH end of the protein to allow it to be purified by affinity column chromatography.\nThus, we were able to determine the Michaelis constants (Km) and the Vm values of the recombinant β-glucocerebrosidase in particular for the retinoic acid-arbutin glucoconjugate. The kinetics measurements are carried out in a phthalate buffer at pH 5.6 (0.025 M) containing taurocholate (5 mM), purified β-glucocerebrosidase and the test conjugate at various concentrations. The incubation lasts 30 minutes and the amount of hydroquinone-retinoic acid conjugate released is assayed by HPLC. The table below gives the results obtained. […] As regards their rates of hydrolysis, these are lower and thus allow effects to be obtained over time.", "data": [{"protein": "recombinant β-glucocerebrosidase (Homo sapiens) (protein, histidine tail (His tag) (C); made in house) ARPCIPKSFGYSSVVCVCNATYCDSFDPPTFPALGTFSRYESTRSGRRMELSMGPIQANHTGTGLLLTLQPEQKFQKVKGFGGAMTDAAALNILALSPPAQNLLLKSYFSEEGIGYNIIRVPMASCDFSIRTYTYADTPDDFQLHNFSLPEEDTKLKIPLIHRALQLAQRPVSLLASPWTSPTWLKTNGAVNGKGSLKGQPGDIYHQTWARYFVKFLDAYAEHKLQFWAVTAENEPSAGLLSGYPFQCLGFTPEHQRDFIARDLGPTLANSTHHNVRLLMLDDQRLLLPHWAKVVLTDPEAAKYVHGIAVHWYLDFLAPAKATLGETHRLFPNTMLFASEACVGSKFWEQSVRLGSWDRGMQYSHSIITNLLYHVVGWTDWNLALNPEGGPNWVRNFVDSPIIVDITKDTFYKQPMFYHLGHFSKFIPEGSQRVGLVASQKNDLDAVALMHPDGSAVVVVLNRSSKDVPLTIKDPAVGFLETISPGYSIHTYLWRRQ", "values": [{"measurement": "Km", "result": "5 ± 1.2", "unit": "µM"}, {"measurement": "Vmax", "result": "235 ± 19", "unit": "nmol/h/mg"}]}]}
